Results reported in patent US20180354988A1 (University of California, published 2018).
Residue numbers refer to the chain shown, from its start. In names and notes the source's numbering stands.

B1: ^C98RhuA-ACP (enzyme)
chain: MQNITQSWFVQGMIKATTDAWLKGWDERNGGNLTLRLDDADIAPYHDNFHQQPRYIPLSQPMPLLANTPFIVTGSGKFFRNVQLDPAANLGIVKVDSCGAGYHILWGLTNEAVPTSELPAHFLSHSERIKATNGKDRVIMHCHATNLIALTYVLENDTAVFTRQLWEGSTECLVVFPDGVGILPWMVPGTDAIGQATAQEMQKHSLVLWPFHGVFGSGPTLDETFGLIDTAEKSAQVLVKVYSMGGMKQTISREELIALGKRFGVTPLASALALGSGSGSTIEERVKKIIGEQLGVKQEEVTNNASFVEDLGADSLDTVELVMALEEEFDTEIPDEEAEKITTVQAAIDYINGHQA
B2: ^C98RhuA-Pd4 (enzyme)
chain: MQNITQSWFVQGMIKATTDAWLKGWDERNGGNLTLRLDDADIAPYHDNFHQQPRYIPLSQPMPLLANTPFIVTGSGKFFRNVQLDPAANLGIVKVDSCGAGYHILWGLTNEAVPTSELPAHFLSHSERIKATNGKDRVIMHCHATNLIALTYVLENDTAVFTRQLWEGSTECLVVFPDGVGILPWMVPGTDAIGQATAQEMQKHSLVLWPFHGVFGSGPTLDETFGLIDTAEKSAQVLVKVYSMGGMKQTISREELIALGKRFGVTPLASALALGSGSGTSNAVHPTLRHL
notes: also called C98-RhuA-Pd4 mutant
B3: ^C98RhuA-HisTag (enzyme)
chain: MQNITQSWFVQGMIKATTDAWLKGWDERNGGNLTLRLDDADIAPYHDNFHQQPRYIPLSQPMPLLANTPFIVTGSGKFFRNVQLDPAANLGIVKVDSCGAGYHILWGLTNEAVPTSELPAHFLSHSERIKATNGKDRVIMHCHATNLIALTYVLENDTAVFTRQLWEGSTECLVVFPDGVGILPWMVPGTDAIGQATAQEMQKHSLVLWPFHGVFGSGPTLDETFGLIDTAEKSAQVLVKVYSMGGMKQTISREELIALGKRFGVTPLASALALGSGSGHHHHHH
notes: also called RhuA-C98-HisTag; C98-His tagged RhuA mutant
B4: ^C98RhuA (L-rhamnulose-1-phosphate aldolase variant D98C/C126S/E192A) (enzyme)
chain: MQNITQSWFVQGMIKATTDAWLKGWDERNGGNLTLRLDDADIAPYHDNFHQQPRYIPLSQPMPLLANTPFIVTGSGKFFRNVQLDPAANLGIVKVDSCGAGYHILWGLTNEAVPTSELPAHFLSHSERIKATNGKDRVIMHCHATNLIALTYVLENDTAVFTRQLWEGSTECLVVFPDGVGILPWMVPGTDAIGQATAQEMQKHSLVLWPFHGVFGSGPTLDETFGLIDTAEKSAQVLVKVYSMGGMKQTISREELIALGKRFGVTPLASALAL
notes: C4 symmetric homotetramer (4 x 274 residues); Tetramers link to each other through single C98-C98 disulfide bonds at the corners; also called RhuA-C98; Rhu-C98
B5: ^C266RhuA (enzyme)
chain: B4 chain with C98D, T266C
notes: Surface cysteine lies on the sides of the tetramer; also called RhuA-C266
B6: ^C133RhuA (enzyme)
chain: B4 chain with C98D, N133C
notes: Surface cysteine lies on the sides of the tetramer; also called RhuA-C133

Key:
self-assembly, TEM = molecular target: the molecule itself; assay: self-assembly, TEM
[1] = molecular target: the molecule itself; assay: disulfide-mediated self-assembly
[2] = molecular target: the molecule itself; assay: oxidative self-assembly conditions; TEM

Protein	binding result (self-assembly, TEM)	binding result [2]	also measured
B1	binds		
B2	binds		
B3	binds		
B4			binding result [1]: binds
B5		binds	
B6		binds	
